From the DeepSol protein solubility set

Test: soluble on expression in E. coli; label from the status in PepcDB or PDB records

| Sequence | soluble on expression in E. coli |
| --- | --- |
| MVSEREQLACLVQQWNENRLDLFHLSYPTEDLEVEGVMRFYFQDGGEKVLTKCVRVSSTATTRAVVDALSEKFLPDLKMLSNDTYSLWEVHENGEERKLLDEEKPLVVQLQWHKDDREGRFLLKKDAAPPVSLLNLQEADQKNTRFAKKKDKEPKKKNQKNFVQVNGGREEAQSQDDIYKQVPFNTFTRTISNPEAVMRKRREKKLETKLKEMMFGGSLKVYGGEIVPTRPYVSILAEINENADRILGAALEKYGLEHSKDDFILVEVSNDDDRKSMSDLREIDGRPIPPTECPLFEMTARSGNGENGFDSFLAIKRKPHDYQVPSTSVVAPSSVTLPMSPLTSLPPQIHNLPVLIVMNNDGHLSTHRITLHEGVTEVGSDSQMSNFSQHNIYLDGPDIRGRHAAIAFMEGVVTLTPSTRDAYLEVNGHQLMQTEILRDGDHIRIGADHSFKFSTSSSQANQINSTNISNSNQRHFQQQTFYPEMADSRASTARCAPSDYCSLPQQNDYYPPSMSGSSVSSSRQEDLMMHSNNNILPPYSTKSAQEPLQLPLSIQIGDYNVWDFLAEVMSNRAATSSEMSTFRLSPAYSLYLALRSFHTHNKPYSVQFFSRIESNFKQIAQECSSKDDLIFWLANASEFNHLVERDTELKASRYGKISVEIERIFRRLVAVLQSVIRPAARALLDIHLNDHDATGDVIHLLDTTMRQARICGLNAALTIQLCGHLLHMVNAFVFNSLVSVNLPAAQLNTRLGKCLQYRIESIHRFCERMGVEMAAECHLDRSRQAANLLATQKNDVAALGSTCYKLNSLQVVHILSGFEPDDGEIPCDDDVVDRICRLAEKQADKLTLEDGQRVTLEESDELNLPFLIPQDGYFVEQFRTVPDGLWQYLQQLQHRRLCHTVSLTPAPPAAMTHSMHAMHIGASDAHYHQHQHQQQQNPIVRSVSQTTLTSIPTTQFGDSFGSAVSDTISKVTLRKNGGGIGLSIVAAQGVGDRQMGIYVKKVVEGTPAAHDGRLETGDQLLSVNGHSLIGISQEEFVFQ | not soluble |
| MAHHHHHHMKYRYDEKIHKGLYSEDNSTSMNNRYNNNESTYKMPKEILNRHEKIDLNSLPIDEEIINNLKIILNIEKLYMYQYIIYNEILKNSKHLLIYNKTGTGKTLSYLLPLIQKLINDKFDCNKKVLIITQNIYLCKQLYIYILSIYPTLNVCILSDEKESYNMNNNINNDIIVNIKRNNINPNDKENNDMCDEKYGIHFYLCTPNKLEYFIKNYKNKSRNDKNVMNNILNNINTIVIDEFDYIVEYRKNILNFFFKKDLFNEIHNNNNIRDKNRFNHDIFNKSNYNIYLFTANINEVIKKKIYEHLNGFVFFDFINGIKEHIQKQVAEQHNFNIDVLKNSENVVQLLNKENKNESLCNLNITHFVCKINSASKYKYVCYFLEEFFFHKQKISQKVYNDMVYDEYDKLNYRNMIPMEENKFVNNSEKEGNMKRSNADKINKCIIFANTKEEVEKLYEISLLKPHAVMMHSELLTIQKNENINLFKVGKKNVLITTDIISRGLDIDNVIFILNYSPPTSPNDYIHRSGRTGRGKEKGICLTMYHKYEYRNVDKIMKYTKNKFEVILCPKVEDVYKFSVDKLVENVMKIAPEKYEFFNEKSKELLKKHNTKIIAQILSILLKFDKKSFDVSLLSGKKNYVAVLIKDPFFEVIKNRDDIINIIKVITGNKIITTIIGDVAKCDEGFIVDISSSHVNKIISLFNSSNFEYKSKGLEINTLIELPPIIKEKKNIIRRKKKAPWIT | not soluble |
| MGSDKIHHHHHHMYNEGVTSPSQLARKKNATDKWHGSSIRKILENPHYTGTLQQCREYRPSVTSKRRRSVNLENQIIIEKSHEPIIPLEDFLIVQEILITRKRRRPQAEVHLFTNTAVCKDCRRSMHFKKNRKGYVCGSYNKHGLKACSDHYVSEIDLTDKVITNLNKIYLKFSKENYFKELSEKALKYKEKIESKIIEINEKLNDKKRDKSNLVISLANGVISKEDYQLAINITNEDISNFETTLHQLSKDLEFQKIEKEIIDFKKSLDKFMKEGTLTPEMLHLLVDEIEVHANGTIEINYRFREPTVPSA | not soluble |
| MEKRGKVWLAVSGLVATKDGRWLFVKKKYSGLKGKWSLPAGFVNEGETVDEAVKREVLEETGIVAHVKGIIGVRSGVIRNEISDNMIIFLLEPEGENIIIQEKELSEVAFLHPDKIVDDPNTSVLIKYLLEGRSELHLEVDKTLNPGEPFGYTAYHVFTARAKERGKE | not soluble |
| VRKCLSDTDCTNGEKCVQKNKICSTIVEIQRCEKEHFTIPCKSNNDCQVWAHEKICNKGCCWDLL | soluble |
| MFSPQAYLIFNMRKPPFDNIKVRQAVMHAFNRKLVVDNIFFGLGKISTSPFVPTEMFFDKDIPAIPFDMKKARALIKESGINPGDYTIRQLSFPYGATWDRLGEYTKQALEQLGFKVNVESTDAGGWASRTGNWDFDLTTTYSYQYGDPALGVQRLYVTSNIVKGSPFANMQGYSNPESDKLWEQAAAEVDPAKRQELYNKIQALLVAEVANGFLVDME | not soluble |
| MGSDKIHHHHHHMDCNGSGGSSDDDKPLHHDGGVRMKFFRSVGEVFGYSPFRSLAQHARMCGRAVGLLQQQFEALRRGNYEEVEELREEIDELEHHADQIKEEIRGNVTKSLMLPVDRHDLLEFLKVQDDILNNCEHVGHMVTFRKVSAPEDVWDEFLVLLSKLMEIVNNYEEMVERIMQLVETSFSKKEVNRALEYVPIIEQLEHECDLIQIGLHTKLFNLENSNPLDIQLMVTWVVHLGYVANAAARASDRFRIMILGR | not soluble |
| MGSDKIHHHHHHMTTGKLSHAHLCGWLRFKHLTLLTTLAESRNMHATARVMHLSQPAASKMLRDLEVYFGFALFERLPRAMQPTELGEQVIRHAWILLNDMERLVDDINDLREGGYGQLLIGAIAAAAPEILPAAIARLKQARPRLSVSLQEQTSDRLLLELEHKRLDLVIGRLTHVSQHNLFDFEPLLDEPLRVVVRRDHPLTRRGEAPSLDELSHWPWILHPLSSPMRGVFESALAEEGIATPANVVETTSIQATLQLLQSSDMLAVLPRSVMRRPLAGGQYVVLERVIGKPLDYYGIITRRQEPLSPAVEELVVHLRRLAAEADGR | not soluble |
| MKKWVCTVCGYIYDEDAGDPDNGISPGTKFEELPDDWVCPLCGVGKDQFEKLED | soluble |
| SLMAGSFCWRMLGLVSKVGNRARCFSSVAASEEELLDFSGSELQFNSCSLHLSLHPFFNFLLGIHSCFVCKESKTDVKRCVVTQCGKFYHEACVKKYPLTVFESRGFRCPLHSCVSCHASNPSNPRPSKGKMMRCVRCPVAYHSGDACLAAGCSVIASNSIICTAHFTARKGKRHHAHVNVSWCFVCSKGGSLLCCESCPAAFHPDCLNIEMPDGSWFCNDCRAGKKLHFQDIIWVKLGNYRWWPAEVCHPKNVPPNIQKMKHEIGEFPVFFFGSKDYYWTHQARVFPYMEGDRGSRYQGVRGIGRVFKNALQEAEARFREIKLQREARETQESERKPPPYKHIKVNKPYGKVQIYTADISEIPKCNCKPTDENPCGFDSECLNRMLMFECHPQVCPAGEFCQNQCFTKRQYPETKIIKTDGKGWGLVAKRDIRKGEFVNEYVGELIDEEECMARIKHAHENDITHFYMLTIDKDRIIDAGPKGNYSRFMNHSCQPNCETLKWTVNGDTRVGLFAVCDIPAGTELTFNYNLDCLGNEKTVCRCGASNCSGFLGDRPKTSTTLSSEEKGKKTKKKTRRRRAKGEGKRQSEDECFRCGDGGQLVLCDRKFCTKAYHLSCLGLGKRPFGKWECPWHHCDVCGKPSTSFCHLCPNSFCKEHQDGTAFSCTPDGRSYCCEHDLGAASVRSTKTEKPPPEPGKPKGKRRRRRGWRRVTEGK | soluble |
| MGSDKIHHHHHHMDPIEFIQKSASSIASTMHKLKLKYNPFSEKPIRGNTKFFVGRVSELREIGEILGSALHGSVANAAIVGTKGIGKSSMLNIIYYATKKQGHWVVEMTASQVTPRQFLIQLLYNILTENIITMSGTIKSDYMEHSSRILDMYRKLNNYGDKVPIHYPRERIERDLEYLINEVKSPDKLCIILIDEADQFAKKSCLSLLQFFHSFLYEEGILTFMAGSPTLMDDLTKISPPIKDRIPKIINMPPLSKDESYDLIRRRLEDAHIDGAEEFEPFTEEAIHKIVEECDGIPRKIIMTCSESISIAIRKGLTKIDEKVVKEAMHSLGISVGHQILNHLTPAQSEIVRAMAELGGSATVTQLAEYLKKSPSTIGTHLSDIYEMGYIYKEREGNNVYYKLSKELRDVLIGEDDELEM | not soluble |
| MSLIVVTGGAGFIGSHVVDKLSESNEIVVIDNLSSGNEEFVNEAARLVKADLAADDIKDYLKGAEEVWHIAANPDVRIGAENPDEIYRNNVLATYRLLEAMRKAGVSRIVFTSTSTVYGEAKVIPTPEDYPTHPISLYGASKLACEALIESYCHTFDMQAWIYRFANVIGRRSTHGVIYDFIMKLKRNPEELEILGNGEQNKSYIYISDCVDAMLFGLRGDERVNIFNIGSEDQIKVKRIAEIVCEELGLSPRFRFTGGDRGWKGDVPVMLLSIEKLKRLGWKPRYNSEEAVRMAVRDLVEDLDEEGHHHHHH | soluble |
| MSWQTYVDEHLMCDIDGQGEELAASAIVGHDGSVWAQSSSFPQFKPQEITGIMKDFEEPGHLAPTGLHLGGIKYMVIQGEAGAVIRGKKGSGGITIKKTGQALVFGIYEEPVTPGQCNMVVERLGDYLIDQGL | soluble |
| MSLADLEEALLIIDSDEDVSRHMKEHLTSRGFHVVHCASVKCFTDLKAQVTPDIIIGDLTSDDIKSLYSLLKDVHPRPPIVIHSKRADAENILGALRSGASDYIVKPVADVAVLDEAIQRQIDQVRVYRENQQYRYDLELANKELRAGLEELQADQRAGRHVQMKMLPEREVEYGGIQFDHCIKPSLYLSGDFFDYFRLSSDKIAFYFADVSGHGASSAFVTVLLKNLSNRLQRNLRRQSSDDILYPDRFLKRVNAELLDTDLGKHLTMFAGVIDLQTRVLSYSMGAHFPMPVMSVNGVSRYLDGKGPPVGLFDDPVYPLYEEPLAPGFSLVICSDGLLEVINAKSLAEKEQALLETVQEARHTIPELEKAFGLRWITELPDDIAIVSIMETTEGHHHHHH | soluble |
| MRKRLLGDEHPDVAFSLNNLATVLAATNHPEEALSHRIEASNINDQIIRNIFAFSSESDRLSFLDKIRNNFDLFLSLVCNHLANSNRAKLAALDFVLKRKALTASALAAQNQAFYNGRYPQLQEKFSQLRDLSNQIIHLTFAVPETDDLATYQDNIRQLQSRHNHLQKQLAAQVPEIQLSEQVFDCQAIAAALPHNSILVEFVRFDVFDFQAVSANGETQWHPARYLAFILTAGKPNAVQMIDLGVADTIDRLIQAFRLQASDYTLPTLAWGKAPKLRVKSYNPTPAIELSQALLEPIRGLVKDCRHLIIAPDGNLNLVPFQVLPIDATSSRLLMDEYTISYLGVGREILRSKFQPSTGSISAPLIIADPDFDLSGTGDWENNTRLDVRSLQLSNQFTETGLLRAPGTRFLGESVAKKLPDAKLYLGAEALETRLTNSNCPKIMLIATHGLFQSDSQAQPVTKRRNLLSMERQRTTKVENPMLRSGLALAGANTWLAGGTLPLAAGKGFVFAQDIANLDLWANELTVLSACDTARGDIKIGEGVFGLRRAFAVAGTKTLVMSLWSVPDKVTALLMERFFDNLQSGMSRSEALDSAQNYIRNITVKELRASALGLEVLKELLAVKELSANSRIDCQEDDTPLEHPFYWGAWICQGNTNPLVNLEHHHHHH | not soluble |
| MGSDKIHHHHHHMTVSNPAKSIRIGTMISGNNGDAATRIREIAGLGFESFEPFFWQTTKGQNLAELGKRCVDAIGDRDITISTLGMFGNPLEETDIDLETLEGWKQCIDNAHHFGASCVAGFTGRLRGKVLTDSLPRYREIWSELAKRAADKGIRIAFENCAMDGNWQSGDWNIAHNPDAWELMFNETPDDNIGLEWEPCHQMVYLIDPLPQIRKWASKIFHVHGKDATIRWDVIREHGIFGKEPFVFMRTPGFGDSNWTNVISELRLAGYSGSIDIEGWHDPVYRDALEMTGQVHALNHLKQARGGDFIDEMAAYGGGDPSLK | not soluble |
